# In US20130052162A1, “BOOSTING IMMUNE DEFENSE BY UPREGULATING CCAAT/ENHANCER BINDING PROTEIN EPSILON” (CEDARS-SINAI MEDICAL CENTER, priority 2010, published 2013):
# “Also recorded” adds a separate entry of the source.
# B1: IFN-γ: recombinant murine IFN-γ (Shenandoah Biotechnology) (protein, UniProt P01580 23-155, looked up)
# Interferon gamma: HGTVIESLESLNNYFNSSGIDVEEKSLFLDIWRNWQKDGDMKILQSQIISFYLRLFEVLKDNQAISNNISVIESHLITTFFSNSKAKKDAFMSIAKFEVNNPQVQRQAFNELIRVVHQLLPESSLRKRKRSRC
# Key:
# [1] = system: S. aureus (strains Pig1 and LAC); test: Effect of zinc on growth and viability of S. aureus; assay type: cell-based, Staphylococcus aureus; settings: 100 μM Zn2SO4, RPMI 1640 with 10% FBS, 24 h
# Method: To assess whether zinc, at the concentrations used in the inventors' study, adversely affect the growth and viability of S. aureus (strains Pig1 and LAC), bacteria (˜5×10^5 CFU) were incubated with or without 100 μM zinc (Zn2 SO4) in RPMI 1640 with 10% FBS. The assay was performed in triplicate in 96-well plates for 24 h at 37° C. at which time ten-fold serial dilutions were plated on THA for enumeration of CFU.
# [2] = system: S. aureus; test: S. aureus survival assay in BMDM treated with IFN-γ; assay type: cell-based, mouse; settings: C/EBPε−/− BMDM, IFN-γ 48 h before infection, 24 h
# Method: Macrophages were infected with S. aureus at the specified MOI. […] After 30 min, macrophages were washed three times with pre-warmed media to remove extracellular bacteria. Gentamicin (Invitrogen, Carlsbad, Calif., USA) was then added to each well at a final concentration of 400 μg/mL for 1.5 h. At this time, the concentration of gentamicin in the media was reduced to 100 μg/mL for the remainder of the assay. At 24 h post infection, cells were washed three times with PBS, then 100 μl of 0.02% Triton X-100 in water was added to each well and pipetted vigorously 10× to promote macrophage lysis and release intracellular bacteria. Ten-fold serial dilutions of each cell lysate were immediately plated onto THA, and CFU were enumerated following overnight incubation at 37° C. Data are representative of at least two independent experiments performed in triplicate.
# BMDM harvested from WT and C/EBPε^−/− mice were seeded at the required density of 5×10^4 cells per well (100 μl) in 96-well tissue culture plates. Macrophages were then activated with IFN-γ (200 U/mL) for 48 h prior to infection. Activated and control non-activated macrophages were infected with S. aureus at the specified MOI. The macrophage survival assay was then performed as described for U937 macrophages.
# [3] = system: S. aureus; test: Murine skin (s.c.) S. aureus infection with IFN-γ treatment; assay type: in vivo, mouse; settings: C/EBPε−/− mice, 5,000 U i.p. daily
# Method: S. aureus was pelleted, washed twice and resuspended in PBS (Mediatech, Manassas, Va., USA) mixed 1:1 with sterile Cytodex beads (GE Healthcare, Pasadena, Calif., USA) at the specified inoculum, following an established protocol for generating localized S. aureus and S. pyogenes subcutaneous (s.c.) infection^41,42. One hundred microliters of two separate inocula, as specified, were administered by s.c. injection into the respective two flanks of each mouse. Injections were performed with careful visualization of the needle to assure that they were not intramuscular. Serial dilutions were prepared and plated to confirm the actual inocula used.
# Baseline weights of mice were recorded prior to infection and daily thereafter until sacrifice. Lesions were measured with a caliper, daily throughout infection. Lesions were defined by darkened areas of dermonecrosis. The inventors' method to measure lesion size has been previously reported^43. Briefly, skin lesions were quantified by multiplying the length and width of the lesion. Irregularly-shaped lesions were broken down into smaller symmetrical pieces, and each piece was measured by the same method.
# Following euthanization of mice on the specified day, infected skin lesion tissue was aseptically excised, and thoroughly homogenized and mixed in 1 mL of PBS as previously shown^43. Ten-fold serial dilutions of the homogenates were plated on THA for CFU determination. The spleen and both kidneys were aseptically removed from each animal and processed in the same way. When required, the appropriate homogenized suspensions (skin lesions) were centrifuged at 15,000 g for 10 min and supernatants stored at −80° C. for subsequent analysis by ELISA.
# Mice were infected with S. aureus by s.c. injection as already described. One hundred microliters of two separate specified inocula were injected into the respective two flanks of WT and C/EBPε^−/− mice.
# C/EBPε^−/− mice were treated with recombinant murine IFN-γ (Shenandoah Biotechnology, Warwick, Pa., USA) 48 h prior to infection. IFN-γ was administered i.p. (0.5 mL in PBS) at a dose of 5,000 U. Control WT and C/EBPε^−/− mice received equal amounts of PBS. The respective mice continued to receive IFN-γ or PBS every 24 h until they were euthanized.
# Mouse weight and lesion size were recorded daily as already described. At day 4 p.i., mice were euthanized, and the CFU from skin lesions, spleen, and kidneys were determined.
Molecule,effect on viability and growth of S. aureus [1],effect on viability and growth of S. aureus ([1]; listed as Zinc),S. aureus CFU recovered from / killing by macrophages [2],"CFU in skin lesions, spleen and kidneys vs PBS [3]",area of dermonecrosis [3],changes in body weight vs PBS-treated WT control [3],overall lesion size / area vs PBS [3]
O=S(=O)([O-])[O-].[Zn+2] [zinc],no effect; also recorded: does not have direct anti-staphylococcal activity,no effect,–,–,–,–,–
B1,–,–,reduced the number of S. aureus CFU; also recorded: improved killing of S. aureus,lower numbers of bacteria in the skin lesions; also recorded: significantly lower CFU,dramatically ameliorated,similar,no effect on the overall lesion area; also recorded: no effect on overall lesion size
